One block for each substance: values may come before it.
Target: CASK_CAMK domain (residues 1-345) (Mus musculus) (UniProt O70589)
Experiment: ITC

- fold increase in the binding affinity against wild-type LiprinA2: 9 fold
Substance: LiprinA2 CID G977E and H983R (domain or fragment)

- fold decrease of the binding against wild-type Caskin1: 40 fold
Substance: Caskin1 CID L378T/R379H (domain or fragment)

- fold decrease of the interaction against wild-type Caskin1: 9 fold
Substance: Caskin1 CID L378T (domain or fragment)

- Kd: 6.94 µM
- stoichiometry N: 1
Substance: reported Caskin1 peptide

From paper doi:10.1101/2022.01.16.476467
